Data on 20 sequences can be found in a protein production outcome set (Wang et al. 2014).

A short description of this data set: label from the status in PepcDB records.
On to “MEILSLGEKIKARRKELNMTLKDLAGDRITPGQISLVESGKSNPSMDLLEYLAGALNTSVEYLMESEETQAEKICVYYENTAEAYMLNDELMEAEQYLEKAMYYAENYKISYRKARTLYLYGCINMNKNELGVAQQFFLSSNVLFIKLNHYEDIINTFINLGKITLNLKAYNSSCSYFEQAERVSRDNDIGNDFLIGEIYYYMSLVYFKMNNSNKTIKYCLMAKEKFAELENKKEYARTLLILSKEYSKSGDVDNAIKYSKKALKAFKENDNMFAVADIENELGKLFYEFENIEESFIHLNKAKEIRKKTKGHEFIETLCNICENYIKLKDTENSQKVLNEIKENIDGNNVFDILKYYMLKYRISILNRSLKEAENILLRALQYAENMELEKEAAEFSVIIGKYYIDNGDDVEAAKYLNSGIEKFKKIGVLKDL”, for which the protein production result is given as “failed”.

“CSPVRERRLEHQLEPGDTLAGLALKYGVTMEQIKRANRLYTNDSIFLKKTLYIPILTEPRDLFN”: the protein production result is listed as “not failed”.

Consider “MYVFTIGYFTIPANLFSLITSRYSAERKNVGGIVIINLIAGISSSLVFALLVPYYISLTKLDVPIYFYSAISLIILTYLLTVTNSIAQGRTPKIVGISALIFQVLRLVSGIIFMFIFNLSILAVILAYSIGYLAQVLFNLFFIRANLKIDFKVAFSAVRKAVVYIANYIQYILEASIVWITLGIVNSDLVVAYFESAIIVSNIQIGHKQYIQGLWLS”, for which the protein production entry is reported as “failed”.

Consider “MIKRLTISPLFLILSLIAYYLSRNDILLYSTLSTILFWTFIILILPTSFYNYIKDGIVKYCKKKIFWFTVGLYISYHVILYSFFFYLLLPGSIKNISFWFSFNAGIGYSIPPPITYFLEWVSNSPAIWFFIGPYEGDVIPFSTFLGVVLALLIGLNVMKILELWGISNKLSKSIVLIPSLGVVSGSSCCVFLPSIVMYSIALSISSITATILSILSSFAYFILAYYALPIVSAIVLFHNLTMLNRLIKKLSFTM”, for which the protein production entry is “failed”.

Turning to “MAKLHIPVMVDEVVHCLSPQKGQIFLDMTFGSGGHTKAILQKESDIVLYALDRDPTAYALAEHLSELYPKQIRAMLGQFSQAEALLMKAGVQPGTFDGVLMDLGCSSMQLDTPERGFSLRKDGSLDMRMDGGRSTGTCIYPKNIRGGEACQENRFSNCSGTQHLPHHQNPAACQHRCRSISSLCYLYTERLTTAIYPYCHQDFPGSSHICEQ”, the protein production entry is listed as “failed”.

As to “MVSNQRVRLFMLCFCLVNNAVIAATEDENVERKPYIVYMGEATENSLVEAAENHHNLLMTVIGDESKARELKIYSYGKNINGFVARLFPHEAEKLSREEGVVSVFKNTQRQLHTTRSWDFLGLVESKYKRSVGIESNIIVGVLDTGIDVESPSFNDKGVGPPPAKWKGKCVTGNNFTRCNNKVIGAKYFHIQSEGLPDGEGDTAADHDGHGTHTSSTIAGVSVSSASLFGIANGTARGGVPSARIAAYKVCWDSGCTDMDMLAAFDEAISDGVDIISISIGGASLPFFEDPIAIGAFHAMKRGILTTCSAGNNGPGLFTVSNLAPWVMTVAANSLDRKFETVVKLGNGLTASGISLNGFNPRKKMYPLTSGSLASNLSAGGYGEPSTCEPGTLGEDKVMGKVVYCEAGREEGGNGGQGQDHVVRSLKGAGVIVQLLEPTDMATSTLIAGSYVFFEDGTKITEYINSTKNPQAVIFKTKTTKMLAPSISSFSARGPQRISPNILKPDISAPGLNILAAYSKLASVTGYPDDNRRTLFSIMSGTSMACPHAAAAAAYVKSFHPDWSPAAIKSALMTTATPMRIKGNEAELSYGSGQINPRRAIHPGLVYDITEDAYLRFLCKEGYNSTSIGLLTGDNSNNTTKKEYNCENIKRGLGSDGLNYPSLHKQVNSTEAKVSEVFYRTVTNVGYGPSTYVARVWAPKGLRVEVVPKVMSFERPKEKRNFKVVIDGVWDETMKGIVSASVEWDDSRGHLVRSPILLFRSDNDYR”, the protein production entry was “failed”.

On to “KRREIPLKVLVKAVLFACMLMRKTMASRVRVTILFATETGKSEALAWDLGALFSCAFNPKVVCMDKY”, for which the protein production entry is “failed”.

For “MPLASGQVFAGFTIVRLVGTGGMGEVYLAKHPRLPREDALKVLPISVSADDEFRQRFIREADMAATLWHPHIVGVHDRGEFEGRLWISMDYVDGHDAARLLHDKYPKGMPADDVVEIVTAVGDALDYAHQRQLLHRDVKPANILVTEKHGTKRRIMLTDFGIARRTDDVNGLTSTNITVGSMSYTSPEQLMGQPLDGRADQYSLAATAYRLLTGAPPFSHSNPAVVISHHLNSPPPKLGDTKPALAKLDSVMAKALAKDAKDRFDTCHDFAVALAEANKGDESAAPVTAAPPPVITPPVQTAPPTTPLKAQTLPAPPTPPTPLSPSNPQAPTASQPPVFTSSWAGHDDPSGRQPVAVPAPAPPPPPPPSNFGPPPPAYSPPPRKSGGDRRKLIIAAAAIGAVVLLVGGITLAVTSGGDNDSAGAAATTSETASETPVTTTPKKPGEHAYTIADYIRDNKISETPVHRGDPNTPELTMPTPPGWADAGTRTPAWAYSAIVNDPASPTDPPSVISLISKLDGNVDPEKLLEFAPNELQNLTEWEPIGGVTRSNLSGFPSVQLGGSYLKDGKRRAITQKTVVVDIPSGIYVLQINADSLYRDFGALVDVNKAIDKEATIKP”, the protein production entry was “failed”.

With “MNRLFGNGRCLDVAIDHGVCNEPSFLDGLENMPAVVKALVDARPDAIQMNYGQADLLQDLPGKDKPALVMRIDMGNPYNRIRHRDMWAVLQNEAEPLVGALQMDAACVVVNLFMLPDEPDLFRQCVQNISRVRADCEKYGMPLMIEPLVMQPVTERGGYMVDGDADKIVTLTRLAREMGADIVKADPTTNAEDFHRVVEAARCPVLVRGGGKEDLAAVFAKSTALMRQGAMGMVYGRNIYQHANPSAVVRGLMAIIHQDASGEEAVAIYRQG”, the protein production result is listed as “failed”.

“MIDVLVQLKSEELILKQRVITAVVALIIFIPIVFLGGTLIEIAALALAVVAMSEVLIMKRILLVTPEAIISILGTLFLVAPKSWMHDLPSQINTPFVSLIFAIALMVRVVFSKNRFNFDDAGVLTLTMLYIGFGFNMFVQARTVGLGMLMYLLLTVWSTDSGAYLVGRKIGKTKLAPQISPNKTWEGSIGGTIVAVIVGIIFSVTGLIHYGILATILMTLFLSIAGQLGDLVESSLKRYYGVKDSGRILPGHGGILDRFDSLLLVLPMAYLLGLL”: the protein production result was “failed”.

Take “MLKEKAGVIAGTIWNALNETEGMTAKQLKKATKLVDKDLFLGLGWLLREDKVSVEEVEGELFIKLI”: the protein production entry is reported as “failed”.

With “MAEEHRCETPEGHRLCVNNCGFFGSSATMNLCSNCYGDLCLKQQQQASMKSTVESSLSPVIAPVLENYAAELEIPTTKKTEEKKPIQIPTEQPSPPQRPNRCTVCRKRVGLTGFMCRCGTTFCGSHRYPEVHGCTFDFKSAGREEIAKANPLVIAAKLQKI”, the protein production result is listed as “failed”.

For the sequence “MNTSHSSPSNTLLWQSLGLGLLALLLFCAGADHQSAIGFDSRFVLFAKEMLRHGPGFFPTTYGQPYADYSSASTLLVWLFSLPGGQVTSLTAWLPTAIASALIVSLIYRLLAPYSRTWALLSVALLLLSNTFISETRAVSLDQMLAAVSLAVFYLGYAHDHFGTRRRLGWIFLLLVLGFAIRGPIGLVIPTGMLCSYYLLNGQWRRLFSVGFSALALLVACVGLLLWLAKLSGGQAFVDDVIRMQFMGRMDGSEGSSDVFYYFTSSLGNYALAYPLAILAWLAVLLTRATEQGPGLKLLRLCTAAGLIVMIGLSIPQAKKARYLLPMLPMAAIIAAYPFQAGRGRLLAWLRGAIQGLWLLLPGLLIIGLLVLRRKFPEQLDSLTPMLLVLGLLQLLSLGLLFKRQWRAVGLAYSAVLAVWACYIGVFEPVEHRLYDTRTFSHSAMQLIEADPAPVVLHRMGKDAKAIKFMVNLDRDLQPQFTESPDALAQVPGPAWVILDQSDLASLQNTPLADLKPVLSGRFDKNDFVLLHLTGPTAAQP”, the protein production entry is given as “failed”.

As for “MPEAPGDTPLALDLLRRLRRALGAAGLPELEAWDLLAAATGWPRKALYGRLTSPLPQEALDRAEALLKRRLQGYPLQYLVGEVEFFGLPLRVEEGVLIPRPETEGLVELALGLPLPPAPRILDVGTGTGAIALALKRALPEAEVYATEVDPKALALARENAERLGLAVVFLPAPLTGGLKDLDLVVSNPPYLPEAYREKAPRELGYESPLALYAGPEGLSVARPLAEEARRSLKPGGYLLLELAPENVHLLARELREKGWKEVAVLPDLAGRDRYLRARRPPEEAEGEEGRLHRPHLPQSLHPHPDHPGPPPEEEEALGQVRLRGEAGVLRGHALLQKALPDPFPHLQEDGPGPGLPRVEEGGAGENLPRGPQALFRVKAGPDEEDAVLVPRPLQDGKPRALGPAEKPHALEAQEEGPPPGRLFQRHGALLRAQAHLPQVEPLAQAGEAFCELALLPLQHPGLDEEALDPPLLLGELLAHPGQGLPEPGGLLLQNLPGAP”, the protein production result is recorded as “failed”.

With “MTGEKIRSLRRDHKPSKEEGDLLEPGDEEAAAALGGTFTRSRIGKGGKACHKIFSNHHHRLQLKAAPASSNPPGAPALPLHNSSVTANSQSPALLAGTNPVAVVADGGSCPAHYPVHECVFKGDVRRLSSLIRTHNIGQKDNHGNTPLHLAVMLGNKECAHLLLAHNAPVKVKNAQGWSPLAEAISYGDRQMITALLRKLKQQSRESVEEKRPRLLKALKELGDFYLELHWDFQSWVPLLSRILPSDACKIYKQGINIRLDTTLIDFTDMKCQRGDLSFIFNGDAAPSESFVVLDNEQKVYQRIHHEESEMETEEEVDILMSSDIYSATLSTKSISFTRAQTGWLFREDKTERVGNFLADFYLVNGLVLESRKRREHLSEEDILRNKAIMESLSKGGNIMEQNFEPIRRQSLTPPPQNTITWEEYISAENGKAPHLGRELVCKESKKTFKATIAMSQEFPLGIELLLNVLEVVAPFKHFNKLREFVQMKLPPGFPVKLDIPVFPTITATVTFQEFRYDEFDGSIFTIPDDYKEDPSRFPDL”, the protein production result is listed as “failed”.

In the case of “QEYILALADVPSSPYGVKIIELSQTTAKVSFNKPDSHGGVPIHHYQVDVKEVASEIWKIVRSHGVQTMVVLNNLEPNTTYEIRVAAVNGKGQGDYSKIEIFQTLPV”, the protein production entry is “not failed”.

With “MIKIAVIAGGSFDCLPEPADLYVGVDAGSLRLLDHSLPLDWAIGDFDSVTSEELGQIREMAEQFLQAPAEKDDTDLELALKEIFKAYPQAQVRIYGALGGRMDHMMSNLFLVAEPDLAAYMEQIELVDSQNVVRFRPAGSHRISPIAGMKYISFMPSDQSHLTIRYAKYPLDASNYFFKKCYASNEFIDRDIDIQLDQGYVVLIYSKDKD”, the protein production entry is reported as “failed”.

Consider “MDPLNLSWYDDDLERQNWSRPFNGSDGKADRPHYNYYATLLTLLIAVIVFGNVLVCMAVSREKALQTTTNYLIVSLAVADLLVATLVMPWVVYLEVVGEWKFSRIHCDIFVTLDVMMCTASILNLCAISIDRYTAVAMPMLYNTRYSSKRRVTVMISIVWVLSFTISCPLLFGLNNADQNECIIANPAFVVYSSIVSFYVPFIVTLLVYIKIYIVLRRRRKRVNTKRSSRAFRAHLRAPLKGNCTHPEDMKLCTVIMKSNGSFPVNRRRVEAARRAQELEMEMLSSTSPPERTRYSPIPPSHHQLTLPDPSHHGLHSTPDSPAKPEKNGHAKDHPKIAKIFEIQTMPNGKTRTSLKTMSRRKLSQQKEKKATQMLAIVLGVFIICWLPFFITHILNIHCDCNIPPVLYSAFTWLGYVNSAVNPIIYTTFNIEFRKAFLKILHC”, for which the protein production entry is listed as “failed”.

For the sequence “MKRPHGYQITSLRADKYGGYYAANFVGNEILYFDVNNNVNALVKDGFSYLKSPYDVIEANNLLYVTLYSSDEIGVYDKVLGVKRKSIGNKGTKDGELLAPQYMAIDKRNYIYVSEWGNKRVSKFGLEGDFILHFGSRTSGYKGLLGPTGVTYLNENIYVADSLRNTIEVFDTSGNHLYSVFTSIEGIEGLSSDFVGNNVIVSSKDGVYKYSIAKKTITKILKADKMNSKISSSILDANNQMIVSDFNNAKVSVYKSDASLYDSLEHHHHHH”, the protein production entry is “not failed”.

For “MGFLVPSEITVSEFLLDFLNKYSENISLATYNNYVSICKNYINPSIGKYKIQDLHPVHIQNYIDKLSYKLNPQSIKIHINILKLAIKRAYRLKLIKENVMDSIKAPLEHHHHHH”, the protein production result was “failed”.
